Earlier results in doi:10.1101/2023.06.05.542125.
Where two headings read alike, the source gives them in different places.

Tests used:
[1] = biological target: RNA polymerase elongation complex (Escherichia coli) (UniProt P0A7Z4)
[2] = biological target: RNA polymerase elongation complex (Escherichia coli) (UniProt P0A7Z4); remark: listed apart in the source

Sequence of GreB (P30128 whole entry): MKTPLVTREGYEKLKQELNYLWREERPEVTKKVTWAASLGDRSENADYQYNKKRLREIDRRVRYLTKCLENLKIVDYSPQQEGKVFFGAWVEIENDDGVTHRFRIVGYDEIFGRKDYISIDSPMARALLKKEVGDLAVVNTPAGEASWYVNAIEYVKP
Sequence of GreA (P0A6W5 whole entry): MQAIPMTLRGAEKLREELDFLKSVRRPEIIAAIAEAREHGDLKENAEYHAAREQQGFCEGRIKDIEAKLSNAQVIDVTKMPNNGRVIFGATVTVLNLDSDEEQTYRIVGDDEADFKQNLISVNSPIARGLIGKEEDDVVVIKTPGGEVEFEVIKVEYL

| Kd [1] | Kd [2] | Substance |
| --- | --- | --- |
| 1000 nM | – | GreA (from UniProt P0A6W5) |
| – | 100 nM | GreB (from UniProt P30128) |
